In publication PMC13615978:
Values belong to the molecule of their own block, whether it stands above or below them.

Key:
[1] = target: Sla2 IDR-CC-mScarlet (IDR, coiled-coil and REND regions) (S. cerevisiae) (UniProt P33338)
[2] = target: Sla2 IDR-CC-mScarlet (IDR, coiled-coil and REND regions) (S. cerevisiae) (UniProt P33338); remark: listed apart in the source

UniProt P33338, sequence (P33338 261-746): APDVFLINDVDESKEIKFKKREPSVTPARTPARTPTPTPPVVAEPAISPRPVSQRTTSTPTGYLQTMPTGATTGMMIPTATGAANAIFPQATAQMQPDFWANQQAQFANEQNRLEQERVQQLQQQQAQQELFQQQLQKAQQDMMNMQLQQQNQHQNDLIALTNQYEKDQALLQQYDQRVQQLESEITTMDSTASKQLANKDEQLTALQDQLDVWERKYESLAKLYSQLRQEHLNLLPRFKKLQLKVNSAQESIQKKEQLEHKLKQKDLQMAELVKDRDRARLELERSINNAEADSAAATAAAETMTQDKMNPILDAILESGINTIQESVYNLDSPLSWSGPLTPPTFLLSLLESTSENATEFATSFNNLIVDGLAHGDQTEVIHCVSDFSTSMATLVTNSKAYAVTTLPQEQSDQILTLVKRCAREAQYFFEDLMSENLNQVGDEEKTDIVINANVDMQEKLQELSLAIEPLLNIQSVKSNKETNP

ID/IS of Clathrin (green channel) with Sla2 IDR-CC-mScarlet droplets, 2.5% (w/v) PEG 8000 [1]: 3.6 | ID/IS of Sla2 IDR-CC-mScarlet (magenta channel) in the presence of Clathrin, 2.5% (w/v) PEG 8000 [1]: 6.9
Molecule: "Clathrin" construct: full-length CLC and CHC distal leg (residues 1172-1572) heterodimer conjugated to mNeonGreen (from UniProt P17891 1-233; P22137 1172-1572) (complex)

ID/IS of 20 µM Sla2 IDR-CC when mixed with 45 µM Ede1 IDR-CC (4.7 for Sla2 IDR-CC alone), 2.5% (w/v) PEG 8000 [2]: 7.8 | droplet-to-solution intensity ratio (ID/IS) of 5 µM Ede1 IDR-CC in condensates of 20 µM Sla2 IDR-CC, 2.5% (w/v) PEG 8000 [2]: 4
B1: Ede1 IDR-CC (residues 366-900) tagged with mEGFP (domain or fragment)
chain: GLYPPNPLPQQQSAPQIAIPSRASKPSLQDMPHQVSAPAVNTQPTVPQVLPQNSNNGSLNDLLALNPSFSSPSPTKAQTVVQNNTNNSFSYDNNNGQATLQQQQPQQPPPLTHSSSGLKKFTPTSNFGQSIIKEEPEEQEQLRESSDTFSAQPPPVPKHASSPVKRTASTTLPQVPNFSVFSMPAGAATSAATGAAVGAAVGAAALGASAFSRSSNNAFKNQDLFADGEASAQLSNATTEMANLSNQVNSLSKQASITNDKKSRATQELKRVTEMKNSIQIKLNNLRSTHDQNVKQTEQLEAQVLQVNKENETLAQQLAVSEANYHAAESKLNELTTDLQESQTKNAELKEQITNLNSMTASLQSQLNEKQQQVKQERSMVDVNSKQLELNQVTVANLQKEIDGLGEKISVYLTKQKELNDYQKTVEEQHAQLQAKYQDLSNKDTDLTDREKQLEERNRQIEEQENLYHQHVSKLQEMFDDLSQRKASFEKADQELKERNIEYANNVRELSERQMNLAMGQLPEDAKDIIAKSAS
